Experimental data as given in patent US20220324953A1 (JIANGSU HENGRUI MEDICINE, published 2022).
Blank lines part the entries; values can stand above or below the binder they belong to.

Molecular target: T1, Mouse CTGF protein-His tag (mouse, UniProt P29268 26-348)
T1 construct: C-terminal His tag; also called mouse CTGF-his protein; mouse CTGF fusion protein
T1 sequence: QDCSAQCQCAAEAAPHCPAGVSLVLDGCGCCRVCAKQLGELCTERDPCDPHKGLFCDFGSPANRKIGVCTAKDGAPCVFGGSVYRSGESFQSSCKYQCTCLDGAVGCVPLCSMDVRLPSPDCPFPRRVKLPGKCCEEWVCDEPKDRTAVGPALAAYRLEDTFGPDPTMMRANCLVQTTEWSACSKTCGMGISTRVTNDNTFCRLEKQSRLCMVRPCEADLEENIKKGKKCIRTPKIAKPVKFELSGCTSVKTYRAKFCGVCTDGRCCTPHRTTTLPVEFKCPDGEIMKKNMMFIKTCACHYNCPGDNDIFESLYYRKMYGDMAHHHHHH
Test: ELISA, plate coated with mouse CTGF-his
Procedure: The binding activity of anti-mouse CTGF antibody to mouse CTGF protein was tested by ELISA assay. A 96-well microtiter plate was directly coated with the mouse CTGF fusion protein. The signal strength upon the addition of the antibody was used to determine the binding activity of the antibody to mouse CTGF. The specific experimental procedures were as follows:
The mouse CTGF-his protein was diluted with PBS, pH 7.4 (Shanghai Yuanpei, Cat No. B320) buffer to a concentration of 0.5 μg/ml, added into the 96-well microtiter plate (Corning, Cat No. CLS3590-100EA) at 50 μl/well, and incubated in an incubator at 37° C. for 2 hours. The liquid was removed, 250 μl/well blocking solution (5% skim milk (BD skim milk, Cat No. 232100) diluted in PBS) was added, and incubated in an incubator at 37° C. for 3 hours or at 4° C. overnight (16-18 hours) for blocking. After the blocking was finished, the blocking solution was removed, the plate was washed for 3 times with PBST buffer (PBS containing 0.1% Tween-20, pH 7.4), 50 μl/well of various concentrations of each of the test antibodies (antibodies purified from hybridoma or humanized antibodies) diluted with sample dilution solution were added, and incubated in an incubator at 37° C. for 1 hours. After the incubation was finished, the plate was washed for 3 times with PBST, 50 μl/well of HRP-labeled goat anti-mouse secondary antibody (Jackson Immuno Research, Cat No. 115-035-003) or goat anti-human secondary antibody (Jackson Immuno Research, Cat No. 109-035-003) diluted with sample dilution solution was added, and incubated at 37° C. for 1 hour. The plate was washed for 5 times with PBST, 50 μl/well of TMB chromogenic substrate (KPL, Cat No. 52-00-03) was added, incubated at room temperature for 5-10min, and 50 μl/well of 1 M H₂SO₄ was added to stop the reaction. The absorbance value was read by a microplate reader (Molecular Devices, VERSA max) at a wavelength of 450 nm, and the data was analyzed with GraphPad Prism 5. The binding of CTGF antibody to mouse CTGF protein was calculated as EC50 value.

EC50: 0.049 nM
B1: Hu164-67wl (antibody, human IgG1, lambda)
heavy: not shown
light: ETVVTQEPSLTVSPGGTVTLTCRSSIGAVTTSNYANWVQQKPGQAFRGLIGGTSNRAPWTPARFSGSLLGGKAALTLSGVQPEDEAEYYCALWYSTHYVFGGGTKLTVLGQPKANPTVTLFPPSSEELQANKATLVCLISDFYPGAVTVAWKADGSPVKAGVETTKPSKQSNNKYAASSYLSLTPEQWKSHRSYSCQVTHEGSTVEKTVAPTEC

EC50: 0.041 nM
B2: Hu164-57wl (antibody, human IgG1, lambda, V domains shown)
VH: EVTLKESGPVLVKPTETLTLTCTVSGFSLSTFGVHWIRQPPGKALEWLAVIWRRGGTDYNAAFMSRLTISKDTSKSQVVLTMTNMDPVDTATYYCARDGGFDYWGQGTTVTVSS
VL: ETVVTQEPSLTVSPGGTVTLTCRSSIGAVTTSNYANWVQQKPGQAFRGLIGGTSNRAPWTPARFSGSLLGGKAALTLSGVQPEDEAEYYCALWYSTHYVFGGGTKLTVLG
